Columns and labels:
[1] = biological target: T1, Human IFNβ (mature human interferon beta) (human, UniProt P01574 22-187); experiment: ELISA (summary value); human IFNβ
T1 construct: Recombinant human IFNβ (Peprotech for SPR); In some functional assays it is endogenous IFNβ secreted by primary human cells; also called hIFN-β; recombinant human IFNβ

[2] = biological target: T2, CID1281 (human (IFNβ with IFNα sequence inserted), UniProt P01574 22-187); experiment: cell-based or functional assay
T2 chain: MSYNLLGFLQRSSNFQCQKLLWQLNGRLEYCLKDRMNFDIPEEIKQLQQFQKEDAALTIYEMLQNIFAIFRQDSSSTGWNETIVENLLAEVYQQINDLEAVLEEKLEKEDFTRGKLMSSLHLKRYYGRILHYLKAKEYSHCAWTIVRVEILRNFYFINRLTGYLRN

[3] = biological target: T3, CID1285 (human (IFNβ with IFNα sequence inserted), UniProt P01574 22-187); experiment: cell-based or functional assay
T3 chain: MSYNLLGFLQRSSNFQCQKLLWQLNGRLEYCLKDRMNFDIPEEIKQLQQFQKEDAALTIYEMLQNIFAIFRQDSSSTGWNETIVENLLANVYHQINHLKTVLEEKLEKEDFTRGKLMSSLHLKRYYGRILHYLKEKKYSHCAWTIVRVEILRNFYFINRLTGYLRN

[4] = biological target: T4, CID1277 (human (IFNβ with IFNα sequence inserted), UniProt P01574 22-187); experiment: cell-based or functional assay
T4 chain: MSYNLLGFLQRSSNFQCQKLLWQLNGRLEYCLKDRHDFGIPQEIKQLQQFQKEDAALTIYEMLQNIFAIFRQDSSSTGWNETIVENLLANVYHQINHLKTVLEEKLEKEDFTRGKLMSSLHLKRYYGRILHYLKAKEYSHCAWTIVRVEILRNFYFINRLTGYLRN

[5] = biological target: T5, CID1276 (human (IFNβ with IFNα sequence inserted), UniProt P01574 22-187); experiment: cell-based or functional assay
T5 chain: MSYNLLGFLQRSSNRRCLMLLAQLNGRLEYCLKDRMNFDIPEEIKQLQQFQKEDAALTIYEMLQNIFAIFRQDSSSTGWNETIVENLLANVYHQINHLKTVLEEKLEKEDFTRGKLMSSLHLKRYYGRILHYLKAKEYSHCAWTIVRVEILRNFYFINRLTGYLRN

[6] = biological target: T6, Cynomolgus monkey IFNβ (cynomolgus monkey, UniProt O77812 22-187); experiment: plate ELISA, cynomolgus IFNβ coated at 5 µg/mL, antibody titrated from 30 nM
T6 construct: also called cyno-IFNβ

[7] = biological target: T7, Rat IFNβ (rat, UniProt P70499 22-184); experiment: plate ELISA, rat IFNβ coated at 5 µg/mL
T7 sequence: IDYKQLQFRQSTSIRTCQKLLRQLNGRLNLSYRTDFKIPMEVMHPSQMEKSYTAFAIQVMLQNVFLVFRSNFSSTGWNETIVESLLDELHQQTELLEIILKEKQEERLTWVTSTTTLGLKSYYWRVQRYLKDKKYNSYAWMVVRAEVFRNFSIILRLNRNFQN

[8] = biological target: T6, Cynomolgus monkey IFNβ; experiment: ELISA (summary value); cynomolgus monkey IFNβ
[9] = biological target: T8, Human IFNγ (human, UniProt P01579 24-166, limits assumed); experiment: plate ELISA, IFNγ coated at 5 µg/mL
T8 construct: also called IFNγ (type II)
T8 sequence (looked up): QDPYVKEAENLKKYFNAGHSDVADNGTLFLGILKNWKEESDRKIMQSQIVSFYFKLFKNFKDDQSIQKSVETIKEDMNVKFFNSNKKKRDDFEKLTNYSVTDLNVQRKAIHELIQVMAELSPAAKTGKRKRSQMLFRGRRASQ

[10] = biological target: T1, Human IFNβ (mature human interferon …); experiment: cell-based or functional assay
[11] = biological target: T1, Human IFNβ (mature human interferon …); experiment: SPR, Biacore T200; CTI-AF1 immobilized on CM5 chip, human IFNβ (Peprotech) 10 to 0.078125 nM, 1:1 model
[12] = biological target: T9, Rabbit IFNβ (rabbit); experiment: plate ELISA, rabbit IFNβ coated at 10 ng/mL
T9 chain: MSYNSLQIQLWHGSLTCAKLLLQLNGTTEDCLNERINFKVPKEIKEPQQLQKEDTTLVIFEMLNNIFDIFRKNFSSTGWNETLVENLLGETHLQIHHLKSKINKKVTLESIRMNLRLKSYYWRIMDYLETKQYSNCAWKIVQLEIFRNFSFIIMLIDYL

[13] = biological target: T1, Human IFNβ (mature human interferon …); experiment: Octet (BLI) response rank; method not described
[14] = biological target: Mouse IFNβ (mouse, UniProt P01575 22-182); experiment: plate ELISA, mouse IFNβ coated at 1 µg/mL
[15] = biological target: Human IFNω (human, UniProt P05000 24-195); experiment: plate ELISA, human IFNω coated at 5 µg/mL
[16] = biological target: T1, Human IFNβ (mature human interferon …); experiment: cell-based or functional assay; remark: listed apart in the source
[17] = biological target: T1, Human IFNβ (mature human interferon …); experiment: plate ELISA, human IFNβ coated at 5 µg/mL, antibody titrated from 30 nM
[18] = biological target: T1, Human IFNβ (mature human interferon …); experiment: SPR (affinity maturation); after affinity maturation (four light chain mutations)
[19] = biological target: T1, Human IFNβ (mature human interferon …); experiment: SPR, Biacore T200; antibody amine-coupled on CM5 chip, human IFNβ as analyte, 1:1 model

T6 sequence (O77812 22-187): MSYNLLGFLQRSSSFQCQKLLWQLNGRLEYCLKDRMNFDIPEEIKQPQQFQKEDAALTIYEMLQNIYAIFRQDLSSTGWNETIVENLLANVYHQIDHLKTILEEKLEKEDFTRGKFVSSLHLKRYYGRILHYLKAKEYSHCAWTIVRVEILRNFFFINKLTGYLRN
Mouse IFNβ, sequence (P01575 22-182): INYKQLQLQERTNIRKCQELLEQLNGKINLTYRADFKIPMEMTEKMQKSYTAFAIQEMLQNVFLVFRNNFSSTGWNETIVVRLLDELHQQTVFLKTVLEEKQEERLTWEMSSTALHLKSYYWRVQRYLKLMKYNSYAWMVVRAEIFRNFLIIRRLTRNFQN
Human IFNω, sequence (P05000 24-195): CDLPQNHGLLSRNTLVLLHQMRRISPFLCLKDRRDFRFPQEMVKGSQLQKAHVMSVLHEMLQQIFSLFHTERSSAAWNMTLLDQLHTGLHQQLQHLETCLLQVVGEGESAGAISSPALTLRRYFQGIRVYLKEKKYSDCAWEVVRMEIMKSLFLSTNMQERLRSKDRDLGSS

B1: CTI-AF1 (antibody, human IgG1, kappa, V domains shown)
VH: QVQLVQSGAEVKKPGSSVKVSCKASGYTFSRYWMHWVRQAPGQGLEWMGHIDPSDSYTYYNQKFKGRVTITADESTSTAYMELSSLRSEDTAVYYCARWDYGNLLFEYWGQGTLVTVSS
VL: DIQMTQSPSSLSASVGDRVTITCRTSQDIGNYLNWYQQKPGKAFKLLIYSTSRLHSGVPSRFSGSGSGTDFTLTISSLQPEDFATYYCQQGIILPITFGGGTKVEIKR
notes: Humanized IgG1; The C-terminal K of the heavy chain is printed as optional, '(K)'; also called anti-IFNβ antibody; humanized IgG1 antibody against interferon beta
EC50 [1]: 0.0153 nM
IC50 (nM), neutralization of type I IFN-induced STAT1 phosphorylation [2]: 3280 nM
IC50 (nM), neutralization of type I IFN-induced STAT1 phosphorylation [3]: 0.4 nM
IC50 (nM), neutralization of type I IFN-induced STAT1 phosphorylation [4]: 0.3 nM
IC50 (nM), neutralization of type I IFN-induced STAT1 phosphorylation [5]: 0.2 nM
EC50 [6]: 0.0247 nM
binding result [7]: no binding
EC50 [8]: 0.025 nM
binding result [9]: no binding
IC50 (pM) ISRE Neutralization [10]: 2 pM
IC50 (pM) pSTAT1 Inhibition [10]: 4 pM
Kd [11]: 0.0367 nM
EC50 [12]: 2.95 nM
Response rank (Octet) [13]: 1 rank
binding result [14]: no binding
binding result [15]: no binding
IC50, IFNβ induced luciferase activity in HEK293 ISRE-Luc cells [16]: 0.0288 nM
IC50, M×A (M×1) gene expression in human dermal fibroblasts stimulated with recombinant IFNβ [16]: 0.0294 nM
IC50, inhibition of IFNβ induced STAT1 phosphorylation in U937 cells (phosflow) [16]: 0.0298 nM
IC50, neutralization of IFNβ induced STAT1 phosphorylation [16]: 0.0077 nM
EC50 [17]: 0.0151 nM
Kd [18]: 0.029 nM
Kd [19]: 0.036 nM

From US20170313769A1 (Pfizer, published 2017)
